Assay [1] addresses T1, lysozyme from chicken egg white (chicken, UniProt P00698).
T1 construct: lysozyme C from chicken egg white; source: bought: Sigma-Aldrich
As to the kind of experiment: ELISA; antigen coated on MaxiSorp plates (5 ug/mL, carbonate buffer pH 9.6); antibody fragments purified from culture supernatant by cobalt-based immunoprecipitation, serially diluted; detection by anti-6x-His-tag antibody, OD450; room temperature. The following applies: both partners purified. In general terms: ELISA stands for enzyme-linked immunosorbent assay.

Assay [2] concerns the target T2, lysozyme from chicken egg white (Lyz, with C-FLAG-tag) (chicken, UniProt P00698).
T2 construct: lysozyme from chicken egg white, synthesised codon-optimised gene with an alpha-factor leader; band of 15 kDa; probably the mature lysozyme behind the leader; A spacer EEGEPK may stand at the N-terminus; source: S. cerevisiae, secreted with alpha-factor leader; culture supernatant concentrated eight times; not shown: FLAG, C-terminal, kept
As to the kind of experiment: pull-down; Nan-His6 from culture supernatant held on cobalt-based Dynabeads and washed; supernatant with Lyz-FLAG (concentrated eight times) added in pull-down buffer (sodium phosphate pH 7.4, NaCl, Tween-20), 4 C, 30 min; imidazole elution; SDS-PAGE and anti-FLAG western blot. The following applies: one partner purified. (In general: Immunoblotting shows a protein as a band on a membrane.)

T2 sequence (P00698 19-147): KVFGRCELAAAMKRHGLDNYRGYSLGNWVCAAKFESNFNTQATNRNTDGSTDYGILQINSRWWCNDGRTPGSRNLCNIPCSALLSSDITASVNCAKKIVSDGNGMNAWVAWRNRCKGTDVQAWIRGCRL
T1 sequence (P00698 19-147): as above

B1: Nanobody (Nan, Camelid), single V-type domain against lysozyme (VHH)
VHH: DVQLQASGGGSVQAGGSLRLSCAASGYTIGPYCMGWFRQAPGKEREGVAAINMGGGITYYADSVKGRFTISQDNAKNTVYLLMNSLEPEDTAIYYCAADSTIYASYYECGHGLSTGGYGYDSWGQGTQVTVSS
notes: camelid VhH against lysozyme, 17 kDa; also called VhH; source: S. cerevisiae HA (also LA, MA), secreted with alpha-factor leader; used as culture supernatant and purified from it by cobalt-based immunoprecipitation; not shown: His6, C-terminal, kept
For B1, the binding result in assay [1] and in assay [2] was “binds” in each case.
